Target: T1, CD93 (Homo sapiens, UniProt Q9NPY3)
T1 construct: expressed in transfected cells; host or cells: 293 cells (CD93+ 293)
T1 sequence (Q9NPY3 22-652): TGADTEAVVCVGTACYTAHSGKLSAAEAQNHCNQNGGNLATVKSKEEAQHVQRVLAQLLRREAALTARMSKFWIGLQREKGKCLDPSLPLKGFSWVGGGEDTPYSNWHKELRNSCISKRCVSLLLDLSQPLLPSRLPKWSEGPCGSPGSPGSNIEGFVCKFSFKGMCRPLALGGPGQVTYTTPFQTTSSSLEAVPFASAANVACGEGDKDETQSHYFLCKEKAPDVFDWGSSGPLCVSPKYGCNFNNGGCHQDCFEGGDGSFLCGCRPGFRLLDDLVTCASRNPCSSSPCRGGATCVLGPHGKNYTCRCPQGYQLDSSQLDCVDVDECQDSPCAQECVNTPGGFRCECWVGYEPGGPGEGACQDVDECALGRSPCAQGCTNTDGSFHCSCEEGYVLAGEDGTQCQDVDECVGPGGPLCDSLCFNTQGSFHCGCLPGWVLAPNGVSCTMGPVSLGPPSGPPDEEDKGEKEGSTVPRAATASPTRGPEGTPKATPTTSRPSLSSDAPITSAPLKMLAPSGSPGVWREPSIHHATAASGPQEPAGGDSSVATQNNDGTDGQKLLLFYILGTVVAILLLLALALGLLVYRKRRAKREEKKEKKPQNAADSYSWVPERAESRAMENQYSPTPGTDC
Test: binding of Ig fusion proteins to CD93 transfectant (flow cytometry)
Conditions: flow cytometry
Source text: FIGS. 10A-10B show identification of the binding domain on IGFBP7 for CD93. Each extracellular domain for IGFBP7, including insulin binding (IB). Kazal, and Ig, was swapped with the corresponding domain on IGFBPL1 using PCR cloning and fused to a C-terminal Ig. These chimeric mutants were transiently expressed in HEK293T cells and supernatants were used to stain CD93 transfectant. FIG. 10A depicts whether multiple chimeric IGFBP7 mutants bind to CD93. FIG. 10B depicts various human genes containing IB-domain constructed onto an expression vector containing Fc-Tag. Constructs were transiently transduced into HEK293T cells to produce Fc tagged fusion proteins in the supernatant. Supernatant was used to stain CD93 transfectant by flow cytometry. Binding index represents the ratio of binding MFI of CD93 transfectant to control cells.
The IGFBP7-IGFBPL1 chimeras were generated by two-step PCR. […]
Cell surface and intercellular staining and analysis by flow cytometry were followed the protocol previously described (71). Dead cells were excluded with SYTOX® (Blue Dead Cell Stain Kit (Thermo Fisher Scientific). Flow cytometric analysis was conducted with a BD FACS Calibur or a BD LSRFortessa™ cell analyzer (BD Bioscience, Franklin Lakes, N.J. USA), and then data were analyzed by FlowJo software (Tree Star Inc.)

B1: IGFBPL1: a IGFBP-related protein that does not bind CD93 (protein, UniProt Q8WX77 26-278, looked up)
Insulin-like growth …: LGIRDVGGRRPKCGPCRPEGCPAPAPCPAPGISALDECGCCARCLGAEGASCGGRAGGRCGPGLVCASQAAGAAPEGTGLCVCAQRGTVCGSDGRSYPSVCALRLRARHTPRAHPGHLHKARDGPCEFAPVVVVPPRSVHNVTGAQVGLSCEVRAVPTPVITWRKVTKSPEGTQALEELPGDHVNIAVQVRGGPSDHEATAWILINPLRKEDEGVYQCHAANMVGEAESHSTVTVLDLSKYRSFHFPAPDDRM
  binding to CD93 293 cells / CD93 transfectant: does not bind

Reference: patent US20220235136A1, “METHODS AND COMPOSITIONS FOR TREATING A DISEASE OR DISORDER” (YALE UNIVERSITY, priority 2019, published 2022)
